Assay results from publication PMC2115640.

Biological target: TX-100 cytoskeleton
Experiment: detergent extraction

B1: 135-kD glycoprotein (gp135) (natural protein)
chain: HDGTIIAATSPTSGQPSTELPGGKGLITTAKTIQNTDLAITGEKVMSATVSKGPLPGSSNSVSMTLAPTQKNTVIAPDQDEKVSTNPTIATSDSKGIPDLNKSILPSATNSMKPDTPVTQTAGPGAQGNPGTTVSHMTSENTEQTTSQPPPQVKPSSITPALTSIITPTSPRQPSANSTTLKPPESSSESPDKSHTASSSLGTKVVPSSSLYGTSPTRTSSVTFWGGPQSSSGTPPVPAPTPRPAATSSSTPGISSVPGTTSLPSETESLESPSSESPSQPPKLRPTGPPSSGSSGPAASLPDEGPRSSSTQRAATAPRAPSVPSPTSAQGDDRIKCESPGRLTDKMLLLNLTRSGLCAGNNSDDKLITLLCRAAKATFNPAQDQCHIRLVPIQDTQAVAIKEITVQTNLLPRDVYELLKDKWDELKEVGVSNMKLGDQGPPEETEDRFSMPLIITIVCMASFLLLVAALYGCCHQRLSQRKDQQRLTEELQTVENGYHDNPTLEVMETSSEMQEKKVVNLNGELGDSWIVPLDNLAKDDLDEEEDTHL
Which results are given for B1?
gp135 remaining (%) with the TX-100 cytoskeleton, 48-h cultures: 66.2%; gp135 remaining (%) with the TX-100 cytoskeleton, 72-h cultures: 53.4%
